Reference: patent US20150299268A1 (UNIVERSITY OF MARYLAND BALTIMORE, published 2015)

Columns and labels:
BaL-gp120-mV3 = BaL-gp120-mV3 (HIV-1 BaL); assay: capture ELISA
BaL-gp120-W45A = molecular target: T1, BaL-gp120-W45A (HIV-1 BaL); assay: capture ELISA
T1 construct: domain: gp120

BaL-gp120-E492A = molecular target: T2, BaL-gp120-E492A (HIV-1 BaL); assay: capture ELISA
T2 construct: domain: gp120

BaL-gp120-I491A = molecular target: T3, BaL-gp120-I491A (HIV-1 BaL); assay: capture ELISA
T3 construct: domain: gp120

BaL-gp120-P493A = molecular target: T4, BaL-gp120-P493A (HIV-1 BaL); assay: capture ELISA
T4 construct: domain: gp120

BaL-gp120-E32A = molecular target: T5, BaL-gp120-E32A (HIV-1 BaL); assay: capture ELISA
T5 construct: domain: gp120

core-V1V2-D7 = core-V1V2-D7 (HIV-1); assay: capture ELISA
BaL-gp120-F53A = molecular target: T6, BaL-gp120-F53A (HIV-1 BaL); assay: capture ELISA
T6 construct: domain: gp120

BaL-gp120-dV1 = BaL-gp120-dV1 (HIV-1 BaL); assay: capture ELISA
BaL-gp120-K46A = molecular target: T7, BaL-gp120-K46A (HIV-1 BaL); assay: capture ELISA
T7 construct: domain: gp120

BaL-gp120-P498A = molecular target: T8, BaL-gp120-P498A (HIV-1 BaL); assay: capture ELISA
T8 construct: domain: gp120

BaL-gp120-T499A = molecular target: T9, BaL-gp120-T499A (HIV-1 BaL); assay: capture ELISA
T9 construct: domain: gp120

BaL-gp120-E31A = molecular target: T10, BaL-gp120-E31A (HIV-1 BaL); assay: capture ELISA
T10 construct: domain: gp120

BaL-gp120-T303A = molecular target: T11, BaL-gp120-T303A (HIV-1 BaL); assay: capture ELISA
T11 construct: domain: gp120; glycan mutant, V3 region

BaL-gp120-K487AK490A = molecular target: T12, BaL-gp120-K487AK490A (HIV-1 BaL); assay: capture ELISA
T12 construct: domain: gp120

BaL-gp120-D62A = molecular target: T13, BaL-gp120-D62A (HIV-1 BaL); assay: capture ELISA
T13 construct: domain: gp120

BaL-gp120-E47AE91A = molecular target: T14, BaL-gp120-E47AE91A (HIV-1 BaL); assay: capture ELISA
T14 construct: domain: gp120

BaL-gp120-I423A = molecular target: T15, BaL-gp120-I423A (HIV-1 BaL); assay: capture ELISA
T15 construct: domain: gp120

BaL-gp120-L494A = molecular target: T16, BaL-gp120-L494A (HIV-1 BaL); assay: capture ELISA
T16 construct: domain: gp120

BaL-gp120-D57AD78A = molecular target: T17, BaL-gp120-D57AD78A (HIV-1 BaL); assay: capture ELISA
T17 construct: domain: gp120

BaL-gp120-P76A = molecular target: T18, BaL-gp120-P76A (HIV-1 BaL); assay: capture ELISA
T18 construct: domain: gp120

BaL-gp120-V68A = molecular target: T19, BaL-gp120-V68A (HIV-1 BaL); assay: capture ELISA
T19 construct: domain: gp120

BaL-gp120-K500A = molecular target: T20, BaL-gp120-K500A (HIV-1 BaL); assay: capture ELISA
T20 construct: domain: gp120

BaL-gp120-T455A = molecular target: T21, BaL-gp120-T455A (HIV-1 BaL); assay: capture ELISA
T21 construct: domain: gp120

BaL-gp120-W69A = molecular target: T22, BaL-gp120-W69A (HIV-1 BaL); assay: capture ELISA
T22 construct: domain: gp120

BaL-gp120-Y40A = molecular target: T23, BaL-gp120-Y40A (HIV-1 BaL); assay: capture ELISA
T23 construct: domain: gp120

BaL-gp120-V44A = molecular target: T24, BaL-gp120-V44A (HIV-1 BaL); assay: capture ELISA
T24 construct: domain: gp120

BaL-gp120-S200A = molecular target: T25, BaL-gp120-S200A (HIV-1 BaL); assay: capture ELISA
T25 construct: domain: gp120; also called 5200A

BaL-gp120-W35A = molecular target: T26, BaL-gp120-W35A (HIV-1 BaL); assay: capture ELISA
T26 construct: domain: gp120

BaL-gp120 [1] = molecular target: T27, BaL-gp120 (HIV-1 BaL); assay: capture ELISA
T27 construct: domain: gp120; also called monomeric gp120; monomeric BaL gp120

BaL-gp120-V496A = molecular target: T28, BaL-gp120-V496A (HIV-1 BaL); assay: capture ELISA
T28 construct: domain: gp120

core-V3-D7 = core-V3-D7 (HIV-1); assay: capture ELISA
BaL-gp120-dV3 = BaL-gp120-dV3 (HIV-1 BaL); assay: capture ELISA
BaL-gp120-R476A = molecular target: T29, BaL-gp120-R476A (HIV-1 BaL); assay: capture ELISA
T29 construct: domain: gp120

BaL-gp120-Y39A = molecular target: T30, BaL-gp120-Y39A (HIV-1 BaL); assay: capture ELISA
T30 construct: domain: gp120

BaL-gp120-V75A = molecular target: T31, BaL-gp120-V75A (HIV-1 BaL); assay: capture ELISA
T31 construct: domain: gp120

BaL-gp120-R58AK59A = molecular target: T32, BaL-gp120-R58AK59A (HIV-1 BaL); assay: capture ELISA
T32 construct: domain: gp120

BaL-gp120-I420R = molecular target: T33, BaL-gp120-I420R (HIV-1 BaL); assay: capture ELISA
T33 construct: domain: gp120; also called -1420R

BaL-gp120-H105A = molecular target: T34, BaL-gp120-H105A (HIV-1 BaL); assay: capture ELISA
T34 construct: domain: gp120

BaL-gp120-E47A = molecular target: T35, BaL-gp120-E47A (HIV-1 BaL); assay: capture ELISA
T35 construct: domain: gp120

BaL-gp120-S158A = molecular target: T36, BaL-gp120-S158A (HIV-1 BaL); assay: capture ELISA
T36 construct: domain: gp120

BaL-gp120-D57A = molecular target: T37, BaL-gp120-D57A (HIV-1 BaL); assay: capture ELISA
T37 construct: domain: gp120

BaL-gp120-E106AD107A = molecular target: T38, BaL-gp120-E106AD107A (HIV-1 BaL); assay: capture ELISA
T38 construct: domain: gp120

core-D7 = core-D7 (HIV-1); assay: capture ELISA
BaL-gp120-D78A = molecular target: T39, BaL-gp120-D78A (HIV-1 BaL); assay: capture ELISA
T39 construct: domain: gp120

BaL-gp120-Y61A = molecular target: T40, BaL-gp120-Y61A (HIV-1 BaL); assay: capture ELISA
T40 construct: domain: gp120

BaL-gp120-G495A = molecular target: T41, BaL-gp120-G495A (HIV-1 BaL); assay: capture ELISA
T41 construct: domain: gp120

BaL-gp120-dV2 = BaL-gp120-dV2 (HIV-1 BaL); assay: capture ELISA
BaL-gp120-D57AD62A = molecular target: T42, BaL-gp120-D57AD62A (HIV-1 BaL); assay: capture ELISA
T42 construct: domain: gp120

BaL-gp120-R476AR480A = molecular target: T43, BaL-gp120-R476AR480A (HIV-1 BaL); assay: capture ELISA
T43 construct: domain: gp120

BaL-gp120-K33A = molecular target: T44, BaL-gp120-K33A (HIV-1 BaL); assay: capture ELISA
T44 construct: domain: gp120

BaL-gp120-T162A = molecular target: T45, BaL-gp120-T162A (HIV-1 BaL); assay: capture ELISA
T45 construct: domain: gp120; glycan mutant

gp120-JR48.1-ScFV = assay: ELISA
gp120-b12-ScFV = assay: ELISA
BaL-gp120 [2] = molecular target: T27, BaL-gp120; assay: ELISA
gp120-JR4-ScFV [3] = assay: ELISA
FLSC R/T = molecular target: T46, FLSC R/T (HIV-1, UniProt P01730 26-208); assay: ELISA
T46 construct: not shown: linker of FLSC not described

gp120-JR4-ScFV [4] = assay: ELISA; remark: listed apart in the source

B1: b12 (antibody, V domains shown)
VH: QVQLVQSGAEVKKPGASVKVSCQASGYRFSNFVIHWVRQAPGQRFEWMGWINPYNGNKEFSAKFQDRVTFTADTSANTAYMELRSLRSADTAVYYCARVGPYSWDDSPQDNYYMDVWGKGTTVIVSS
VL: EIVLTQSPGTLSLSPGERATFSCRSSHSIRSRRVAWYQHKPGQAPRLVIHGVSNRASGISDRFSGSGSGTDFTLTITRVEPEDFALYYCQVYGASSYTFGQGTKLERK
BaL-gp120-mV3
  % Binding: 100%
BaL-gp120-W45A
  % Binding: 96%
BaL-gp120-E492A
  % Binding: 105%
BaL-gp120-I491A
  % Binding: 98%
BaL-gp120-P493A
  % Binding: 95%
BaL-gp120-E32A
  % Binding: 104%
core-V1V2-D7
  % Binding: 103%
BaL-gp120-F53A
  % Binding: 91%
BaL-gp120-dV1
  % Binding: 90%
BaL-gp120-K46A
  % Binding: 93%
BaL-gp120-P498A
  % Binding: 97%
BaL-gp120-T499A
  % Binding: 107%
BaL-gp120-E31A
  % Binding: 86%
BaL-gp120-T303A
  % Binding: 92%
BaL-gp120-K487AK490A
  % Binding: 85%
BaL-gp120-D62A
  % Binding: 98%
BaL-gp120-E47AE91A
  % Binding: 86%
BaL-gp120-I423A
  % Binding: 96%
BaL-gp120-L494A
  % Binding: 95%
BaL-gp120-D57AD78A
  % Binding: 96%
BaL-gp120-P76A
  % Binding: 96%
BaL-gp120-V68A
  % Binding: 83%
BaL-gp120-K500A
  % Binding: 93%
BaL-gp120-T455A
  % Binding: 90%
BaL-gp120-W69A
  % Binding: 97%
BaL-gp120-Y40A
  % Binding: 106%
BaL-gp120-V44A
  % Binding: 94%
BaL-gp120-S200A
  % Binding: 86%
BaL-gp120-W35A
  % Binding: 107%
BaL-gp120 [1]
  % Binding: 100%
BaL-gp120-V496A
  % Binding: 100%
core-V3-D7
  % Binding: 102%
BaL-gp120-dV3
  % Binding: 109%
BaL-gp120-R476A
  % Binding: 101%
BaL-gp120-Y39A
  % Binding: 90%
BaL-gp120-V75A
  % Binding: 93%
BaL-gp120-R58AK59A
  % Binding: 101%
BaL-gp120-I420R
  % Binding: 101%
BaL-gp120-H105A
  % Binding: 100%
BaL-gp120-E47A
  % Binding: 100%
BaL-gp120-S158A
  % Binding: 80%
BaL-gp120-D57A
  % Binding: 95%
BaL-gp120-E106AD107A
  % Binding: 80%
core-D7
  % Binding: 106%
BaL-gp120-D78A
  % Binding: 92%
BaL-gp120-Y61A
  % Binding: 85%
BaL-gp120-G495A
  % Binding: 90%
BaL-gp120-dV2
  % Binding: 87%
BaL-gp120-D57AD62A
  % Binding: 103%
BaL-gp120-R476AR480A
  % Binding: 68%
BaL-gp120-K33A
  % Binding: 89%
BaL-gp120-T162A
  % Binding: 110%

B2: JR4 (antibody, V domains shown)
VH: EVQLVESGPGLVKPLETLSLTCAVPGGSIRRNYWSWIRQPPGKGLEWIGHSYGSGGSTNYNPSLESRVTLSVDTSKNLFSLKLTSVTAADTAVYYCARTVWYYTSGTHYFDHWGQGVLVTVSS
VL: QSVLTQPPSVSAAPGQKVTISCSGSSSNIGRSYVSWYQQVPGAAPKLLIYDTNKRPSGVSDRFSGSKSGSSASLAITGLQTGDEADYYCGAWDGSLNVHIFGSGTKLTVL
gp120-JR48.1-ScFV
  Fold of Ab needed for ELISA binding OD equal to half max on gp120: 0.21 fold
gp120-b12-ScFV
  Fold of Ab needed for ELISA binding OD equal to half max on gp120: 0.09 fold
BaL-gp120 [2]
  Fold of Ab needed for ELISA binding OD equal to half max on gp120: 1 fold
gp120-JR4-ScFV [3]
  Fold of Ab needed for ELISA binding OD equal to half max on gp120: > 100 fold
FLSC R/T
  Fold of Ab needed for ELISA binding OD equal to half max on gp120: 0.11 fold
gp120-JR4-ScFV [4]
  binding result: no binding (tested: >100 fold of the Ab needed on gp120)
